# Data from patent US20220081480A1.
# Columns and labels:
# FcRn = FcRn (UniProt P55899); test: BLI (Octet), steady state
# FCγRIIa (CD32a)_H131 = FCγRIIa (CD32a)_H131 (UniProt P12318); test: BLI (Octet), steady state
# FCγRI (CD64) = FCγRI (CD64) (UniProt P12314); test: BLI (Octet), antibody on FAB2G tips, kinetic fit
# FCγRIIa (CD32a)_H131, sequence (P12318 36-218 limits assumed): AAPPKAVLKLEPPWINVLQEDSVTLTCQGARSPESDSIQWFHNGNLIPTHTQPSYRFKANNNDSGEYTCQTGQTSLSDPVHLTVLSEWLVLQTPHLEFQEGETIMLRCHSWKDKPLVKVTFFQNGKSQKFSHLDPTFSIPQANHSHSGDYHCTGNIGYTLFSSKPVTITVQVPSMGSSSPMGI
Kd (FcRn) [nM],Kd (FCγRIIa (CD32a)_H131) [nM],Kd (FCγRI (CD64)) [nM],Substance
825,–,–,"hu14.18 IgG2h (FN-AQ, K322A)-delK (antibody)"
620,670,1.8,hu14.18-huIgG1-delK (antibody)
